Reference: patent publication CN113929783A (FUZHOU MAIXIN BIOTECHNOLOGY DEV CO LTD, dated 2022)

Target: T1, 人CD99蛋白 (组织切片中表达) (human, UniProt P14209 23-185)
T1 construct: whole, on cells
T1 sequence (looked up): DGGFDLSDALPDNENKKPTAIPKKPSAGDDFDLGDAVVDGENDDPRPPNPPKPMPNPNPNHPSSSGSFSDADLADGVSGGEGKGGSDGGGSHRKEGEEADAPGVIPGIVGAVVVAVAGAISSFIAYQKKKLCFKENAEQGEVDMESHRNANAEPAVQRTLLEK
Experiment: IHC on 8 ovarian granulosa cell tumours and 8 primitive neuroectodermal tumours

binding result: binds
B1: 抗CD99蛋白单克隆抗体(10D2A10F9) (antibody, V domains shown)
VH: EVQLQQSGAELVKPGASVKLSCTASGFNIKDTYMHWVKQRPEQGLEWIGRIDPANGNTKYDPKFQGKATITADTSSNTAYLQLSSLTSEDTAVYYCGRRGFAYWGQGTLVTVSA
VL: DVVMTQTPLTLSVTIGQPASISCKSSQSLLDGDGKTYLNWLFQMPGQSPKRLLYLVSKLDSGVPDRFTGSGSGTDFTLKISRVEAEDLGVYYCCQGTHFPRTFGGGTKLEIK
notes: also called CGMCC NO.22316
